In experiment [1] the target is LEF1/TCF-transcriptional factors. The experiment can be described thus: cell-based or functional assay.
A further experiment has as its target T1, TCF4 (UniProt Q9NQB0 1-619, limits assumed).
T1 construct: Endogenous protein of HCT116 cells; also called endogenous TCF4
The experiment can be described thus: co-immunoprecipitation with anti-TCF4 beads. How it is done: Co-immunoprecipitation-The affinity-protein G beads were prepared by mixing 20 μl of protein G plus-Agarose beads (Santa Cruz Biotechnology) with 1 μg of corresponding antibody. A total of 2×10⁶ of cells were lysed with 1× cells lysis buffer (Promega) containing 1× protease inhibitor reagent (Roche), incubated on ice for 30 minutes, sonicated briefly, and centrifuged at 12,000 g for 5 minutes at 4° C. The supernatants were further cleaned with 20 μl of untreated protein G plus-Agarose beads and 2 μg of pre-immune serum for 2 hours at 4° C. The supernatants were then mixed with 20 μl of prelabeled protein G plus-Agarose beads at 4° C. overnight. The beads were washed four times with PBS plus 0.2% NP40.
Xom binds to LEF1/TCF factors in vivo and in vitro-Binding of LEF1/TCFs to the promoter of TOPflash is required for the activation of the reporter construct; thus, the finding that expression of Xom activates TOPflash but not FOPflash raised the possibility that Xom activates the TOPflash reporter through interaction with LEF1/TCFs. This hypothesis was tested by determining whether Xom physically interacts with LEF1/TCFs. Co-immunoprecipitation experiments was carried out in HCT116 cells transiently transfected with mye-Xom. […] The in vivo association between Xom and TCF4 appears to be strong and could not be dissociated with 300 mM NaCl and 0.1% NP40. […]

Experiment [2] addresses LEF1/TCF-transcriptional factors. The experiment can be described thus: cell-based or functional assay. The source holds these as a separate data set.

Consider three molecules from patent US20080032927A1 (published 2008).

Read-outs that look alike come from different tables or passages of the source.

T1 sequence (Q9NQB0 whole entry): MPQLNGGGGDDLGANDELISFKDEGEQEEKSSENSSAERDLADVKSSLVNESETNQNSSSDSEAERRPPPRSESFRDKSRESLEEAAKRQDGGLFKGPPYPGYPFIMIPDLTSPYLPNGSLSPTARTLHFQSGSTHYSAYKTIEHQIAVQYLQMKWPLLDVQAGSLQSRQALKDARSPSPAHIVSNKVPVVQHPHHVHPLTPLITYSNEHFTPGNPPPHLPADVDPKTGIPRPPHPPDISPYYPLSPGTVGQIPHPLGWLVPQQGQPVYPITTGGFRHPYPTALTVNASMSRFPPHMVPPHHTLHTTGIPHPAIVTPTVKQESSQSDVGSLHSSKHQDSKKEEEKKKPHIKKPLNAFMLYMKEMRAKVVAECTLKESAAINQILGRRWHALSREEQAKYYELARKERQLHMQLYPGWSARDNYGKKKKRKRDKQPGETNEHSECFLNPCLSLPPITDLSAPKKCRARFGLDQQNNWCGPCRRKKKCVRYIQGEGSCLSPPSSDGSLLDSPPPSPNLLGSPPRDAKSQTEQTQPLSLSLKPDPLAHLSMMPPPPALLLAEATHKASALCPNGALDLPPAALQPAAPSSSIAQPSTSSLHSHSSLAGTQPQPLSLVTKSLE

In experiment [1], Xom gave a TOPflash reporter in 293T cells of 10 fold and a TOPflash reporter transcription in Xenopus embryos of 7 fold.

B1: XomID110 (other)
chain: MTKAFSSVEWLAQSSRRSHREQPSKVDQRYSPYPSPSLPSWNSDVSPSSWNSQLSPDPDSAQVSPCPASAQVSPYSSDSEISLYSHEEEASFYGMDLNTSSSPGDNGLLHSEMVSVPDNIPRASSDEDAAYHPAQFFGVYGYAQQPTPVFQHAVQHPYPGYNPLMETLPGTMPYTMHPPAMDSMTPFNSQPFQMLYLPQQHLGQPLTYQEERPFVR
notes: Internal deletion mutant of Xom lacking aa 131-240, which includes the homeodomain; also called XomID110 (fusion of aa 1-130 and aa 241-326)
On to B1, for which the binding result in the experiment with TCF4 is reported as “no binding”.

B2: XomCD85 (protein)
chain: MTKAFSSVEWLAQSSRRSHREQPSKVDQRYSPYPSPSLPSWNSDVSPSSWNSQLSPDPDSAQVSPCPASAQVSPYSSDSEISLYSHEEEASFYGMDLNTSSSPGDNGLLHSEMVSVPDNIPRASSDEDAAKSAYSTSTDSGYESETSCSSSTAPEGDAISLSPNDTSDEEGKMGRRLRTAFTSDQISTLEKTFQKHRYLGASERQKLAAKLQLSEVQIKTWFQNRRMKYKREIQDGRPDSY
With B2, the TOPflash reporter in 293T cells in experiment [2] turned out to be 10 fold.
